# B1: R-SPONDIN1: exogenous growth factor R-spondin 1 (Peprotech) (protein, UniProt Q2MKA7 21-263, looked up)
# R-spondin-1: SRGIKGKRQRRISAEGSQACAKGCELCSEVNGCLKCSPKLFILLERNDIRQVGVCLPSCPPGYFDARNPDMNKCIKCKIEHCEACFSHNFCTKCKEGLYLHKGRCYPACPEGSSAANGTMECSSPAQCEMSEWSPWGPCSKKQQLCGFRRGSEERTRRVLHAPVGDHAACSDTKETRRCTVRRVPCPEGQKRRKGGQGRRENANRNLARKESKEAGAGSRRRKGQQQQQQQGTVGPLTSAGPA
# B2: NOGGIN: recombinant human NOGGIN, BMP antagonist (protein, UniProt Q13253 28-232, looked up)
# Noggin: QHYLHIRPAPSDNLPLVDLIEHPDPIFDPKEKDLNETLLRSLLGGHYDPGFMATSPPEDRPGGGGGAAGGAEDLAELDQLLRQRPSGAMPSEIKGLEFSEGLAQGKKQRLSKKLRRKLQMWLWSQTFCPVLYAWNDLGSRFWPRYVKVGSCFSKRSCSVPEGMVCKPSKSVHLTVLRWRCQRRGGQRCGWIPIQYPIISECKCSC
# B3: WNT3A: exogenous WNT growth factor (R&D) (protein, UniProt P56704 19-352, looked up)
# Protein Wnt-3a: SYPIWWSLAVGPQYSSLGSQPILCASIPGLVPKQLRFCRNYVEIMPSVAEGIKIGIQECQHQFRGRRWNCTTVHDSLAIFGPVLDKATRESAFVHAIASAGVAFAVTRSCAEGTAAICGCSSRHQGSPGKGWKWGGCSEDIEFGGMVSREFADARENRPDARSAMNRHNNEAGRQAIASHMHLKCKCHGLSGSCEVKTCWWSQPDFRAIGDFLKDKYDSASEMVVEKHRESRGWVETLRPRYTYFKVPTERDLVYYEASPNFCEPNPETGSFGTRDRTCNVSSHGIDGCDLLCCGRGHNARAERRREKCRCVFHWCCYVSCQECTRVYDVHTCK
# Test system: basal organoids
# Experiment: Growth factor evaluation for basal organoids after sedimentation and clonogenic culture
# Type: cell-based, human
# Conditions: pure basal cell cultures; EGF and Noggin together
# Description: (§1) Screening exogenous growth factors in organoid culture.
# Density sedimentation of basal cells. Organoid cultures within 2-3 weeks of primary plating were dissociated with 1 U/ml neutral protease (Worthington, Cat LS02100) and 100 KU of DNase I in organoid media. Basal organoids were then collected by gravity sedimentation and the supernatant was either aspirated or collected for downstream use. Basal organoids were then further fractionated on a custom Ficoll-Paque gradient (4 vol Ficoll-Paque to 1 vol PBS) and centrifuged at 300×g for 10 minutes at room temperature. The supernatant was aspirated and the organoid pellet was resuspended in 10 ml PBS in a 15 ml conical tube, collected by gravity sedimentation, and plated into ECM as described above.
row,Molecule,basal organoid growth with exogenous growth factors
1,B1,without additive effects
2,B2,sufficient for maximal growth
3,B3,without additive effects

# Test system: human distal lung organoids
# Experiment: Screening exogenous growth factors in distal lung organoid culture
# Type: cell-based
# Conditions: single cell suspensions of distal lung, feeder-free; EGF and NOGGIN in combination
# Description: as §1
row,Molecule,distal lung organoid growth with exogenous growth factors
1,B1,without any additional growth-promoting effects
2,B2,optimal
3,B3,without any additional growth-promoting effects

# Test system: AT2 organoids
# Experiment: AT2 organoid proliferation with niche factors and PORCUPINE inhibitor
# Conditions: EGF and NOGGIN together; WNT-3A and RSPONDIN-1 added exogenously
# Description: Screening exogenous growth factors in organoid culture. Distal airway cells were isolated and plated as above with the following exceptions: ADMEM/F12 was used instead of organoid medium during elastase digestion of lung tissue, cells were serially diluted and filtered through a 40 micron cell strainer and counted with a hemocytometer. 1000 viable epithelial cells (by Trypan blue exclusion, size, and morphology) per μL ECM were plated per 5 μL Matrigel droplet per well. Base media consisted of organoid media lacking A83-01, EGF, NOGGIN, WNT3A or RSPO1. EGF (final 50 ng/ml, R&D), NOGGIN (final 100 ng/ml, R&D), WNT3A (final 100 ng/ml, R&D), RSPO1 (final 500 ng/ml, Peprotech) or the PORCUPINE inhibitor C59 (final 1μM, Biogems) were added singly or in combination to base media. Images were obtained ten days after primary plating with an inverted light microscope at 5X magnification. Each condition was plated in quadruplicate and organoid formation was quantified using the analyze particle (threshold=4902 pixels) plugin in ImageJ as previously described.
row,Molecule,clonal AT2 organoid proliferation with exogenous growth factors
1,B1,did not enhance growth
2,B2,sufficient for clonal AT2 organoid proliferation
3,B3,did not enhance growth
